Source: article PMC5812716

What was measured:
[1] = target: MukF FC2 (E. coli); conditions: scale: % of the maximal ATPase obtained with MukF
[2] = target: MukF FN2 (E. coli)
[3] = target: fluorescently labelled FN2, FN10, FN3 and FC2 (E. coli); assay: fluorescence correlation spectroscopy (FCS) + fluorescence polarisation; range of Kds told for the four Cy5-labelled MukF fragments together (FN2, FN10 by FCS; FN3, FC2 by FPA); MukB titrated
[4] = target: MukF FN2 (E. coli); assay: SEC-MALS; Superose 6 10/300 GL or Superose 12 10/300; 50 mM HEPES pH 7.5, 100 mM NaCl, 1 mM DTT, 1 mM EDTA; 20 °C; mixtures at stated monomer:dimer molar ratios; some runs with 1 mM ATP

B1: MukB (natural protein)
chain: MIERGKFRSLTLINWNGFFARTFDLDELVTTLSGGNGAGKSTTMAAFVTALIPDLTLLHFRNTTEAGATSGSRDKGLHGKLKAGVCYSMLDTINSRHQRVVVGVRLQQVAGRDRKVDIKPFAIQGLPMSVQPTQLVTETLNERQARVLPLNELKDKLEAMEGVQFKQFNSITDYHSLMFDLGIIARRLRSASDRSKFYRLIEASLYGGISSAITRSLRDYLLPENSGVRKAFQDMEAALRENRMTLEAIRVTQSDRDLFKHLISEATNYVAADYMRHANERRVHLDKALEFRRELHTSRQQLAAEQYKHVDMARELAEHNGAEGDLEADYQAASDHLNLVQTALRQQEKIERYEADLDELQIRLEEQNEVVAEAIERQQENEARAEAAELEVDELKSQLADYQQALDVQQTRAIQYNQAIAALNRAKELCHLPDLTADCAAEWLETFQAKELEATEKMLSLEQKMSMAQTAHSQFEQAYQLVVAINGPLARNEAWDVARELLREGVDQRHLAEQVQPLRMRLSELEQRLREQQEAERLLADFCKRQGKNFDIDELEALHQELEARIASLSDSVSNAREERMALRQEQEQLQSRIQSLMQRAPVWLAAQNSLNQLSEQCGEEFTSSQDVTEYLQQLLEREREAIVERDEVGARKNAVDEEIERLSQPGGSEDQRLNALAERFGGVLLSEIYDDVSLEDAPYFSALYGPSRHAIVVPDLSQVTEHLEGLTDCPEDLYLIEGDPQSFDDSVFSVDELEKAVVVKIADRQWRYSRFPEVPLFGRAARESRIESLHAEREVLSERFATLSFDVQKTQRLHQAFSRFIGSHLAVAFESDPEAEIRQLNSRRVELERALSNHENDNQQQRIQFEQAKEGVTALNRILPRLNLLADDSLADRVDEIRERLDEAQEAARFVQQFGNQLAKLEPIVSVLQSDPEQFEQLKEDYAYSQQMQRDARQQAFALTEVVQRRAHFSYSDSAEMLSGNSDLNEKLRERLEQAEAERTRAREALRGHAAQLSQYNQVLASLKSSYDTKKELLNDLQRELQDIGVRADSGAEERARIRRDELHAQLSNNRSRRNQLEKALTFCEAEMDNLTRKLRKLERDYFEMREQVVTAKAGWCAVMRMVKDNGVERRLHRRELAYLSADDLRSMSDKALGALRLAVADNEHLRDVLRMSEDPKRPERKIQFFVAVYQHLRERIRQDIIRTDDPVEAIEQMEIELSRLTEELTSREQKLAISSRSVANIIRKTIQREQNRIRMLNQGLQNVSFGQVNSVRLNVNVRETHAMLLDVLSEQHEQHQDLFNSNRLTFSEALAKLYQRLNPQIDMGQRTPQTIGEELLDYRNYLEMEVEVNRGSDGWLRAESGALSTGEAIGTGMSILVMVVQSWEDESRRLRGKDISPCRLLFLDEAARLDARSIATLFELCERLQMQLIIAAPENISPEKGTTYKLVRKVFQNTEHVHVVGLRGFAPQLPETLPGTDEAPSQAS
Binder B1 has a MukB ATPase (steady state, phosphate release) with saturating FC2 at a 2.5-fold molar excess, against MukF [1] of 60, a MukB ATPase (steady state, phosphate release) with saturating FN2 at a 2.5-fold molar excess, against MukF (% of maximum ATPase) [2] of 33 and a Kd [3] of 9 to 26 nM.

B2: MukF FN2 (domain or fragment)
chain: MSEFSQTVPELVAWARKNDFSISLPVDRLSFLLAVATLNGERLDGEMSEGELVDAFRHVSDAFEQTSETIGVRANNAINDMVRQRLLNRFTSEQAEGNAIYRLTPLGIGITDYYIRQREFSTLRLSMQLSIVAGELKRAADAAEEGGDEFHWHRNVYAPLKYSVAEIFDSIDLTQRLMDEQQQQVKDDIAQLLNKDWRAAISSCELLLSETSGTLRELQDTLEAAGDKLQANLLRIQDATMTHDDLHFVDRLVFDLQSKLDRIISWGQQSIDLWIGYDRHVHKFIRT
modifications: not checked
Work on B2 yielded a stoichiometry N [4] of 2.
